How the values were obtained:
HeLa Kyoto [1] = test: solubility in G1/S (NP-40 vs SDS abundance) (log2 ratio); higher = more soluble; settings: cell cycle stage: G1/S
HeLa Kyoto [2] = test: solubility change mitosis vs G1/S (difference of NP-40 vs SDS log2 ratios) (log2 ratio difference); higher = more soluble in mitosis
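For solubility change mitosis vs G1/S (difference of NP-40 vs SDS log2 ratios) in this document: synchronized HeLa Kyoto cells (double thymidine block for G1/S, nocodazole release for mitosis), protein amounts in NP-40 versus SDS lysates quantified by mass spectrometry, three biological replicates.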
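For solubility in G1/S (NP-40 vs SDS abundance) in this document: HeLa Kyoto cells arrested at G1/S by double thymidine block, proteins quantified by TMT10plex mass spectrometry in mild NP-40 versus SDS extracts, three biological replicates.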

Sequence of KLF16 (chain, as listed by the source): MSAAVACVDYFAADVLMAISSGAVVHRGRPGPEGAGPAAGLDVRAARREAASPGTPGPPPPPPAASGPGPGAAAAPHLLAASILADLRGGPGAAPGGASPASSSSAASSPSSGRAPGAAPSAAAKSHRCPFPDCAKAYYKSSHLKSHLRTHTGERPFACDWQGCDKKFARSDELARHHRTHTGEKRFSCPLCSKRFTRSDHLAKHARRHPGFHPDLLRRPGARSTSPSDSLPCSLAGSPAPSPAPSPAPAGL

Substance | solubility in G1/S (log2) (HeLa Kyoto [1]) | solubility change mitosis (log2) (HeLa Kyoto [2])
MASSDLEQLCSHVNEKIGNIKKTLSLRNCGQEPTLKTVLNKIGDEIIVINELLNKLELEIQYQEQTNNSLKELCESLEEDYKDIEHLKENVPSHLPQVTVTQSCVKGSDLDPEEPIKVEEPEPVKKPPKEQRSIKEMPFITCDEFNGVPSYMKSRLTYNQINDVIKEINKAVISKYKILHQPKKSMNSVTRNLYHRFIDEETKDTKGRYFIVEADIKEFTTLKADKKFHVLLNILRHCRRLSEVRGGGLTRYVIT [SKA1] | 0.713 | -0.0548
MAFGKSHRDPYATSVGHLIEKATFAGVQTEDWGQFMHICDIINTTQDGPKDAVKALKKRISKNYNHKEIQLTLSLIDMCVQNCGPSFQSLIVKKEFVKENLVKLLNPRYNLPLDIQNRILNFIKTWSQGFPGGVDVSEVKEVYLDLVKKGVQFPPSEAEAETARQETAQISSNPPTSVPTAPALSSVIAPKNSTVTLVPEQIGKLHSELDMVKMNVRVMSAILMENTPGSENHEDIELLQKLYKTGREMQERIMDLLVVVENEDVTVELIQVNEDLNNAILGYERFTRNQQRILEQNKNQKEATNTTSEPSAPSQDLLDLSPSPRMPRATLGELNTMNNQLSGLNFSLPSSDVTNNLKPSLHPQMNLLALENTEIPPFAQRTSQNLTSSHAYDNFLEHSNSVFLQPVSLQTIAAAPSNQSLPPLPSNHPAMTKSDLQPPNYYEVMEFDPLAPAVTTEAIYEEIDAHQHKGAQNDGD [TOM1L1] | 0.297 | -0.0535
MSKRLSPQLQHNITEDAYCETHLEPTRLFCDVDQITLCSKCFQSQEHKHHMVCGIQEAAENYRKLFQEILNTSREKLEAAKSILTDEQERMAMIQEEEQNFKKMIESEYSMRLRLLNEECEQNLQRQQECISDLNLRETLLNQAIKLATELEEMFQEMLQRLGRVGRENMEKLKESEARASEQVRSLLKLIVELEKKCGEGTLALLKNAKYSLERSKSLLLEHLEPAHITDLSLCHIRGLSSMFRVLQRHLTLDPETAHPCLALSEDLRTMRLRHGQQDGAGNPERLDFSAMVLAAESFTSGRHYWEVDVEKATRWQVGIYHGSADAKGSTARASGEKVLLTGSVMGTEWTLWVFPPLKRLFLEKKLDTVGVFLDCEHGQISFYNVTEMSLIYNFSHCAFQGALRPVFSLCIPNGDTSPDSLTILQHGPSCDATVSP [TRIML2] | 0.0183 | -0.17
MPPKKDVPVKKPAGPSISKPAAKPAAAGAPPAKTKAEPAVPQAPQKTQEPPVDLSKVVIEFNKDQLEEFKEAFELFDRVGDGKILYSQCGDVMRALGQNPTNAEVLKVLGNPKSDELKSRRVDFETFLPMLQAVAKNRGQGTYEDYLEGFRVFDKEGNGKVMGAELRHVLTTLGEKMTEEEVETVLAGHEDSNGCINYEAFLKHILSV [MYL6B] | -0.063 | 0.317
MASSEVARHLLFQSHMATKTTCMSSQGSDDEQIKRENIRSLTMSGHVGFESLPDQLVNRSIQQGFCFNILCVGETGIGKSTLIDTLFNTNFEDYESSHFCPNVKLKAQTYELQESNVQLKLTIVNTVGFGDQINKEESYQPIVDYIDAQFEAYLQEELKIKRSLFTYHDSRIHVCLYFISPTGHSLKTLDLLTMKNLDSKVNIIPVIAKADTVSKTELQKFKIKLMSELVSNGVQIYQFPTDDDTIAKVNAAMNGQLPFAVVGSMDEVKVGNKMVKARQYPWGVVQVENENHCDFVKLREMLICTNMEDLREQTHTRHYELYRRCKLEEMGFTDVGPENKPVSVQETYEAKRHEFHGERQRKEEEMKQMFVQRVKEKEAILKEAERELQAKFEHLKRLHQEERMKLEEKRRLLEEEIIAFSKKKATSEIFHSQSFLATGSNLRKDKDRKNSNFL [SEPT10] | -0.132 | -0.0981
MARTLEPLAKKIFKGVLVAELVGVFGAYFLFSKMHTSQDFRQTMSKKYPFILEVYYKSTEKSGMYGIRELDQKTWLNSKN [CEBPZOS] | -0.306 | -0.012
MRGPSGALWLLLALRTVLGGMEVRWCATSDPEQHKCGNMSEAFREAGIQPSLLCVRGTSADHCVQLIAAQEADAITLDGGAIYEAGKEHGLKPVVGEVYDQEVGTSYYAVAVVRRSSHVTIDTLKGVKSCHTGINRTVGWNVPVGYLVESGRLSVMGCDVLKAVSDYFGGSCVPGAGETSYSESLCRLCRGDSSGEGVCDKSPLERYYDYSGAFRCLAEGAGDVAFVKHSTVLENTDGKTLPSWGQALLSQDFELLCRDGSRADVTEWRQCHLARVPAHAVVVRADTDGGLIFRLLNEGQRLFSHEGSSFQMFSSEAYGQKDLLFKDSTSELVPIATQTYEAWLGHEYLHAMKGLLCDPNRLPPYLRWCVLSTPEIQKCGDMAVAFRRQRLKPEIQCVSAKSPQHCMERIQAEQVDAVTLSGEDIYTAGKTYGLVPAAGEHYAPEDSSNSYYVVAVVRRDSSHAFTLDELRGKRSCHAGFGSPAGWDVPVGALIQRGFIRPKDCDVLTAVSEFFNASCVPVNNPKNYPSSLCALCVGDEQGRNKCVGNSQERYYGYRGAFRCLVENAGDVAFVRHTTVFDNTNGHNSEPWAAELRSEDYELLCPNGARAEVSQFAACNLAQIPPHAVMVRPDTNIFTVYGLLDKAQDLFGDDHNKNGFKMFDSSNYHGQDLLFKDATVRAVPVGEKTTYRGWLGLDYVAALEGMSSQQCSGAAAPAPGAPLLPLLLPALAARLLPPAL [MFI2] | -0.519 | -0.0542
KLF16 | 0.106 | 0.0196
MALVRALVCCLLTAWHCRSGLGLPVAPAGGRNPPPAIGQFWHVTDLHLDPTYHITDDHTKVCASSKGANASNPGPFGDVLCDSPYQLILSAFDFIKNSGQEASFMIWTGDSPPHVPVPELSTDTVINVITNMTTTIQSLFPNLQVFPALGNHDYWPQDQLPVVTSKVYNAVANLWKPWLDEEAISTLRKGGFYSQKVTTNPNLRIISLNTNLYYGPNIMTLNKTDPANQFEWLESTLNNSQQNKEKVYIIAHVPVGYLPSSQNITAMREYYNEKLIDIFQKYSDVIAGQFYGHTHRDSIMVLSDKKGSPVNSLFVAPAVTPVKSVLEKQTNNPGIRLFQYDPRDYKLLDMLQYYLNLTEANLKGESIWKLEYILTQTYDIEDLQPESLYGLAKQFTILDSKQFIKYYNYFFVSYDSSVTCDKTCKAFQICAIMNLDNISYADCLKQLYIKHNY [SMPDL3A] | 0.322 | 0.18
MAPVRRSAKWRPGGIEARGEGVSTVGYRNKNVRQKTWRPNHPQAFVGSVREGQGFAFRRKLKIQQSYKKLLRKEKKAQTSLESQFTDRYPDNLKHLYLAEEERHRKQARKVDHPLSEQVHQPLLEEQCSIDEPLFEDQCSFDQPQPEEQCIKTVNSFTIPKKNKKKTSNQKAQEEYEQIQAKRAAKKQEFERRKQEREEAQRQYKKKKMEVFKILNKKTKKGQPNLNVQMEYLLQKIQEKC [CCDC59] | -0.512 | 0.278
MASRWQNMGTSVRRRSLQHQEQLEDSKELQPVVSHQETSVGALGSLCRQFQRRLPLRAVNLNLRAGPSWKRLETPEPGQQGLQAAARSAKSALGAVSQRIQESCQSGTKWLVETQVKARRRKRGAQKGSGSPTHSLSQKSTRLSGAAPAHSAADPWEKEHHRLSVRMGSHAHPLRRSRREAAFRSPYSSTEPLCSPSESDSDLEPVGAGIQHLQKLSQELDEAIMAEERKQALSDRQGFILKDVYASP [FAM64A] | 0.000622 | 0.481
MPYVDRQNRICGFLDIEEHENSGKFLRRYFILDTQANCLLWYMDNPQNLAMGAGAVGALQLTYISKVSIATPKQKPKTPFCFVINALSQRYFLQANDQKDMKDWVEALNQASKITVPKGGGLPMTTEVLKSLAAPPALEKKPQVAYKTEIIGGVVVHTPISQNGGDGQEGSEPGSHTILRRSQSYIPTSGCRASTGPPLIKSGYCVKQGNVRKSWKRRFFALDDFTICYFKCEQDREPLRTIFLKDVLKTHECLVKSGDLLMRDNLFEIITSSRTFYVQADSPEDMHSWIKEIGAAVQALKCHPRETSFSRSISLTRPGSSSLSSGPNSILCRGRPPLEEKKALCKAPSVASSWQPWTPVPQAGEKLLPPGDTSEDSLFTPRPGEGSAPGVLPSSRIRHRSEPQHPKEKPFMFNLDDENIRTSDV [PLEKHA2] | 0.121 | -0.19
METAPKPGKDVPPKKDKLQTKRKKPRRYWEEETVPTTAGASPGPPRNKKNRELRPQRPKNAYILKKSRISKKPQVPKKPREWKNPESQRGLSGTQDPFPGPAPVPVEVVQKFCRIDKSRKLPHSKAKTRSRLEVAEAEEEETSIKAARSELLLAEEPGFLEGEDGEDTAKICQADIVEAVDIASAAKHFDLNLRQFGPYRLNYSRTGRHLAFGGRRGHVAALDWVTKKLMCEINVMEAVRDIRFLHSEALLAVAQNRWLHIYDNQGIELHCIRRCDRVTRLEFLPFHFLLATASETGFLTYLDVSVGKIVAALNARAGRLDVMSQNPYNAVIHLGHSNGTVSLWSPAMKEPLAKILCHRGGVRAVAVDSTGTYMATSGLDHQLKIFDLRGTYQPLSTRTLPHGAGHLAFSQRGLLVAGMGDVVNIWAGQGKASPPSLEQPYLTHRLSGPVHGLQFCPFEDVLGVGHTGGITSMLVPGAGEPNFDGLESNPYRSRKQRQEWEVKALLEKVPAELICLDPRALAEVDVISLEQGKKEQIERLGYDPQAKAPFQPKPKQKGRSSTASLVKRKRKVMDEEHRDKVRQSLQQQHHKEAKAKPTGARPSALDRFVR [WDR46] | -1.25 | 0.592
MPNFSGNWKIIRSENFEELLKVLGVNVMLRKIAVAAASKPAVEIKQEGDTFYIKTSTTVRTTEINFKVGEEFEEQTVDGRPCKSLVKWESENKMVCEQKLLKGEGPKTSWTRELTNDGELILTMTADDVVCTRVYVRE [CRABP2] | -0.0816 | -0.109
MLPEAGSLWLLKLLRDIQLAQFYWPILEELNVTRPEHFDFVKPEDLDGIGMGRPAQRRLSEALKRLRSGPKSKNWVYKILGGFAPEHKEPTLPSDSPRHLPEPEGGLKCLIPEGAVCRGELLGSGCFGVVHRGLWTLPSGKSVPVAVKSLRVGPEGPMGTELGDFLREVSVMMNLEHPHVLRLHGLVLGQPLQMVMELAPLGSLHARLTAPAPTPPLLVALLCLFLRQLAGAMAYLGARGLVHRDLATRNLLLASPRTIKVADFGLVRPLGGARGRYVMGGPRPIPYAWCAPESLRHGAFSSASDVWMFGVTLWEMFSGGEEPWAGVPPYLILQRLEDRARLPRPPLCSRALYSLALRCWAPHPADRPSFSHLEGLLQEAGPSEACCVRDVTEPGALRMETGDPITVIEGSSSFHSPDSTIWKGQNGRTFKVGSFPASAVTLADAGGLPATRPVHRGTPARGDQHPGSIDGDRKKANLWDAPPARGQRRNMPLERMKGISRSLESVLSLGPRPTGGGSSPPEIRQARAVPQGPPGLPPRPPLSSSSPQPSQPSRERLPWPKRKPPHNHPMGMPGARKAAALSGGLLSDPELQRKIMEVELSVHGVTHQECQTALGATGGDVVSAIRNLKVDQLFHLSSRSRADCWRILEHYQWDLSAASRYVLARP [TNK1] | 0.0271 | -0.0434
MPIPPPPPPPPGPPPPPTFHQANTEQPKLSRDEQRGRGALLQDICKGTKLKKVTNINDRSAPILEKPKGSSGGYGSGGAALQPKGGLFQGGVLKLRPVGAKDGSENLAGKPALQIPSSRAAAPRPPVSAASGRPQDDTDSSRASLPELPRMQRPSLPDLSRPNTTSSTGMKHSSSAPPPPPPGRRANAPPTPLPMHSSKAPAYNREKPLPPTPGQRLHPGREGPPAPPPVKPPPSPVNIRTGPSGQSLAPPPPPYRQPPGVPNGPSSPTNESAPELPQRHNSLHRKTPGPVRGLAPPPPTSASPSLLSNRPPPPARDPPSRGAAPPPPPPVIRNGARDAPPPPPPYRMHGSEPPSRGKPPPPPSRTPAGPPPPPPPPLRNGHRDSITTVRSFLDDFESKYSFHPVEDFPAPEEYKHFQRIYPSKTNRAARGAPPLPPILR [WIPF2] | -0.764 | 1.2
